Test results: PMC10452240, “Biochemical Characterization of the Copper Nitrite Reductase from Neisseria gonorrhoeae” (Biomolecules, 2023)

Target: the molecule itself
Test: SEC; Superdex 200 10/300 GL, 50 mM Tris-HCl pH 7.6, 150 mM NaCl; 50 nmol NgCuNiR; apparent molecular weight from a calibration curve (Gel Filtration Calibration Kit, High Molecular Weight)

B1: copper-containing nitrite reductase from Neisseria gonorrhoeae, soluble domain (enzyme)
chain: AAQATAETPAGELPVIDAVTTHAPEVPPAIDRDYPAKVRVKMETVEKTMKMDDGVEYRYWTFDGDVPGRMIRVREGDTVEVEFSNNPSSTVPHNVDFHAATGQGGGAAATFTAPGRTSTFSFKALQPGLYIYHCAVAPVGMHIANGMYGLILVEPKEGLPKVDKEFYIVQGDFYTKGKKGAQGLQPFDMDKAVAEQPEYVVFNGHVGSIAGDNALKAKAGETVRMYVGNGGPNLVSSFHVIGEIFDKVYVEGGKLINENVQSTIVPAGGSAIVEFKVDIPGSYTLVDHSIFRAFNKGALGQLKVEGAENPEIMTQKLSDTAYA
notes: the construct has no signal peptide; cytoplasmic 36.5 kDa protein; Holds one type 1 and one type 2 copper centre per monomer (2.0 ± 0.1 Cu per monomer); No removal of the His-tag is described; also called NgCuNiR; AniA
With B1 the “stoichiometry N” value was 3.
